Assay results from patent US20240317847A1 (Bayer, published 2024).
Where a chain is given by its changes, count along the chain named.

T1: human IL-11 (human, UniProt P20809 22-199)
T1 sequence: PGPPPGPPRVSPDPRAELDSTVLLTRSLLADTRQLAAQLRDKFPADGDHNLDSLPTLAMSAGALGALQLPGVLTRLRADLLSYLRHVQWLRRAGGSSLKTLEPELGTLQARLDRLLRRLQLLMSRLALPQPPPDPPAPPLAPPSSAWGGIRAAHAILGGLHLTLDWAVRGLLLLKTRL

T2: murine IL-11 (mouse, UniProt P47873 22-199)
T2 sequence: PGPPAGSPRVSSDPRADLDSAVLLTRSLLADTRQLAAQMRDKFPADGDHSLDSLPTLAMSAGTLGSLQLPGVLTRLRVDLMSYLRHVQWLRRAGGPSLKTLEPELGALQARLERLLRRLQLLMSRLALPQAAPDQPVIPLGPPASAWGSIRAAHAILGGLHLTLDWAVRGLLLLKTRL

B1: TPP-31309 (antibody, IgG4, V domains shown)
VH: EVQLLESGGGLVQPGGSLRLSCAASGFTFSHYDMNWLRQAPGKGLEWVGVISYDSSNKFYADFVKGRFTISRDNSKNTLYLQMNSLRAEDTAVYYCARTPGSHFDYWGQGTLVTVSS
VL: QSVLTQPPSASGTPGQRVTISCSGSSSNIGNNAVNWYQQLPGTAPKLLIYYDDLLPSGVPDRFSGSKSGTSASLAISGLRSEDEADYYCSAWDDSLQGVVFGGGTKLTVL
B2: TPP-31280 (antibody, IgG4, V domains shown)
VH: B1 VH with S55G
VL: B1 VL with Y51R, Q97N
B3: TPP-31283 (antibody, IgG4, V domains shown)
VH: B1 VH with S55G
VL: B1 VL with L54Q, Q97N
B4: TPP-31291 (antibody, IgG4, V domains shown)
VH: B1 VH with D33G, S55G
VL: B1 VL with Q97N
B5: TPP-31311 (antibody, IgG4, V domains shown)
VH: B1 VH
VL: B1 VL with Q97N, G98A
B6: TPP-31281 (antibody, IgG4, V domains shown)
VH: B1 VH with S55G
VL: B1 VL with D52N, Q97N
B7: TPP-31310 (antibody, IgG4, V domains shown)
VH: B1 VH
VL: B1 VL with Q97S
B8: TPP-31290 (antibody, IgG4, V domains shown)
VH: B1 VH with H31S, S55G
VL: B1 VL with Q97N
B9: TPP-31282 (antibody, IgG4, V domains shown)
VH: B1 VH with S55G
VL: B1 VL with D53N, Q97N
B10: TPP-31279 (antibody, IgG4, V domains shown)
VH: B1 VH with S55G
VL: B1 VL with N35Y, Q97N

Each binder was assayed against T1, human IL-11 (assay: cell-based or functional assay).

Compared with B1, B2 is higher in “IC50, RGA 1” value: 261 nM for the first, greater than 500 nM for the second.

B3 and B4 cannot be ordered by “IC50, RGA 1” value: greater than 500 nM for the first, greater than 500 nM for the second.

B5 and B6 cannot be ordered by “IC50, RGA 1” value: greater than 500 nM for the first, greater than 500 nM for the second.

B7 and B8 cannot be ordered by “IC50, RGA 1” value: greater than 500 nM for the first, greater than 500 nM for the second.

First: B9
Second: B10
The “IC50, RGA 1” value of the first is lower: 345 nM for the first, greater than 500 nM for the second.

Going from B1 to B3, the “IC50, RGA 2” value rises from 122 nM to 200 nM (1.6-fold).

Going from B5 to B7, the “IC50, RGA 2” value rises from 34 nM to greater than 500 nM.

Going from B9 to B10, the “IC50, RGA 2” value rises from 287 nM to greater than 500 nM.

The binders below were run against T2, murine IL-11 (assay: cell-based or functional assay).

Going from B1 to B2, the “IC50, RGA 1” value rises from 108 nM to greater than 500 nM.

Going from B3 to B4, the “IC50, RGA 1” value rises from 247 nM to greater than 500 nM.

Going from B5 to B6, the “IC50, RGA 1” value rises from 76 nM to greater than 500 nM.

First: B7
Second: B8
The “IC50, RGA 1” value of the first is lower: 144 nM for the first, greater than 500 nM for the second.

Compared with B9, B10 is 2.8-fold higher in “IC50, RGA 1” value: 70 nM for the first, 196 nM for the second.

First: B1
Second: B3
The “IC50, RGA 2” value of the first is 1.7-fold lower: 68 nM for the first, 118 nM for the second.

Compared with B5, B7 is 1.7-fold lower in “IC50, RGA 2” value: 127 nM for the first, 75 nM for the second.

Compared with B9, B10 is higher in “IC50, RGA 2” value: 28 nM for the first, greater than 500 nM for the second.
